Among the data in the supplement of paper PMC5998384 are thermal stability score and melting temperature values, retold here.

Data set [1] deals with HeLa Kyoto. Put plainly: thermal stability score vs G1/S (z-score of summed log2 fold changes over temperatures); higher = more thermally stable than in G1/S.
Data set [2] relates to HeLa Kyoto. Kind of data set: melting temperature (median over replicates), in situ; higher = more thermally stable.
Where [3] appears, read: cell cycle stage: early G1 (4.5 h after nocodazole release).
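For melting temperature (median over replicates), in situ in this document: HeLa Kyoto cells synchronized by double thymidine or nocodazole block, proteins quantified by TMT10plex mass spectrometry, three independent biological replicates.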
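For thermal stability score vs G1/S (z-score of summed log2 fold changes over temperatures) in this document: synchronized HeLa Kyoto cells, proteins quantified by TMT10plex mass spectrometry, three biological replicates, mitosis taken 0.5 h after nocodazole release, G1/S directly after double thymidine block.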

MARK3, sequence (chain, as listed by the source): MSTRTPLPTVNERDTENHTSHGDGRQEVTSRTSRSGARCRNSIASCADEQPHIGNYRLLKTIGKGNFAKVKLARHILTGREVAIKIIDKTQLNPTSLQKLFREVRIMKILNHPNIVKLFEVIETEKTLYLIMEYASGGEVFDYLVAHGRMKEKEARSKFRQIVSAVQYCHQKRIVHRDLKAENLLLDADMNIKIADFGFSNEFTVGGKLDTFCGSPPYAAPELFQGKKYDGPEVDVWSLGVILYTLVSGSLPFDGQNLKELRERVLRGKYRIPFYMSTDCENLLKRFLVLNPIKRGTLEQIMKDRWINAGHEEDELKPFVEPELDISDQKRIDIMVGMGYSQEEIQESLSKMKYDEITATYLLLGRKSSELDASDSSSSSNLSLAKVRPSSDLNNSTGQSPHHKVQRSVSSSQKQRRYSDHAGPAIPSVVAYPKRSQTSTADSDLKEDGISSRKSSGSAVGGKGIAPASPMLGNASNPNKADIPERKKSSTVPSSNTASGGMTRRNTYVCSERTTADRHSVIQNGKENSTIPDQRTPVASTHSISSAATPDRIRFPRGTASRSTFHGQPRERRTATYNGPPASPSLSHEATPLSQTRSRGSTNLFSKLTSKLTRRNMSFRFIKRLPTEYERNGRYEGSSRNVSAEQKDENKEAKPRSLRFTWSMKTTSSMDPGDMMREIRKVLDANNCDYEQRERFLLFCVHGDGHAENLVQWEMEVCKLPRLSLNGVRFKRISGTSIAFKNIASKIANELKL

Take “MAAPLVLVLVVAVTVRAALFRSSLAEFISERVEVVSPLSSWKRVVEGLSLLDLGVSPYSGAVFHETPLIIYLFHFLIDYAELVFMITDALTAIALYFAIQDFNKVVFKKQKLLLELDQYAPDVAELIRTPMEMRYIPLKVALFYLLNPYTILSCVAKSTCAINNTLIAFFILTTIKGSAFLSAIFLALATYQSLYPLTLFVPGLLYLLQRQYIPVKMKSKAFWIFSWEYAMMYVGSLVVIICLSFFLLSSWDFIPAVYGFILSVPDLTPNIGLFWYFFAEMFEHFSLFFVCVFQINVFFYTIPLAIKLKEHPIFFMFIQIAVIAIFKSYPTVGDVALYMAFFPVWNHLYRFLRNIFVLTCIIIVCSLLFPVLWHLWIYAGSANSNFFYAITLTFNVGQILLISDYFYAFLRREYYLTHGLYLTAKDGTEAMLVLK [PIGU]”: the thermal stability score with HeLa Kyoto [1] (setting [3]) was 0.038; in the data set on HeLa Kyoto [1] (cell cycle stage: mitosis) it was -0.34.

For “MAKVSVLNVAVLENPSPFHSPFRFEISFECSEALADDLEWKIIYVGSAESEEFDQILDSVLVGPVPAGRHMFVFQADAPNPSLIPETDAVGVTVVLITCTYHGQEFIRVGYYVNNEYLNPELRENPPMKPDFSQLQRNILASNPRVTRFHINWDNNMDRLEAIETQDPSLGCGLPLNCTPIKGLGLPGCIPGLLPENSMDCI [ASF1B]”, the values for the thermal stability score with HeLa Kyoto [1] (setting [3]) and in the data set on HeLa Kyoto [1] (cell cycle stage: mitosis) were -3.88 and -1.16, respectively.

Take MARK3: the thermal stability score in the data set on HeLa Kyoto [1] (setting [3]) was -0.371; in the data set on HeLa Kyoto [1] (cell cycle stage: mitosis) it was 0.161.

Take “MARKALKLASWTSMALAASGIYFYSNKYLDPNDFGAVRVGRAVATTAVISYDYLTSLKSVPYGSEEYLQLRSKSWPVFLQVHLRSARRLCELCCANRGTFIKVGQHLGALDYLLPEEYTSTLKVLHSQAPQSSMQEIRQVIREDLGKEIHDLFQSFDDTPLGTASLAQVHKAVLHDGRTVAVKVQHPKVRAQSSKDILLMEVLVLAVKQLFPEFEFMWLVDEAKKNLPLELDFLNEGRNAEKVSQMLRHFDFLKVPRIHWDLSTERVLLMEFVDGGQVNDRDYMERNKIDVNEISRHLGKMYSEMIFVNGFVHCDPHPGNVLVRKHPGTGKAEIVLLDHGLYQMLTEEFRLNYCHLWQSLIWTDMKRVKEYSQRLGAGDLYPLFACMLTARSWDSVNRGISQAPVTATEDLEIRNNAANYLPQISHLLNHVPRQMLLILKTNDLLRGIEAALGTRASASSFLNMSRCCIRALAEHKKKNTCSFFRRTQISFSEAFNLWQINLHELILRVKGLKLADRVLALICWLFPAPL [ADCK1]”: the thermal stability score with HeLa Kyoto [1] (setting [3]) is 0.277; with HeLa Kyoto [1] (cell cycle stage: mitosis), -0.197.

On to “MAVPGCNKDSVRAGCKKCGYPGHLTFECRNFLRVDPKRDIVLDVSSTSSEDSDEENEELNKLQALQEKRINEEEEKKKEKSKEKIKLKKKRKRSYSSSSTEEDTSKQKKQKYQKKEKKKEKKSKSKKGKHHKKEKKKRKKEKHSSTPNSSEFSRK [SREK1IP1]”, for which the thermal stability score was -0.6 in the data set with HeLa Kyoto [1] (setting [3]) and -4.29 with HeLa Kyoto [1] (cell cycle stage: mitosis).

Take “MCFSFIMPPAMADILDIWAVDSQIASDGSIPVDFLLPTGIYIQLEVPREATISYIKQMLWKQVHNYPMFNLLMDIDSYMFACVNQTAVYEELEDETRRLCDVRPFLPVLKLVTRSCDPGEKLDSKIGVLIGKGLHEFDSLKDPEVNEFRRKMRKFSEEKILSLVGLSWMDWLKQTYPPEHEPSIPENLEDKLYGGKLIVAVHFENCQDVFSFQVSPNMNPIKVNELAIQKRLTIHGKEDEVSPYDYVLQVSGRVEYVFGDHPLIQFQYIRNCVMNRALPHFILVECCKIKKMYEQEMIAIEAAINRNSSNLPLPLPPKKTRIISHVWENNNPFQIVLVKGNKLNTEETVKVHVRAGLFHGTELLCKTIVSSEVSGKNDHIWNEPLEFDINICDLPRMARLCFAVYAVLDKVKTKKSTKTINPSKYQTIRKAGKVHYPVAWVNTMVFDFKGQLRTGDIILHSWSSFPDELEEMLNPMGTVQTNPYTENATALHVKFPENKKQPYYYPPFDKIIEKAAEIASSDSANVSSRGGKKFLPVLKEILDRDPLSQLCENEMDLIWTLRQDCREIFPQSLPKLLLSIKWNKLEDVAQLQALLQIWPKLPPREALELLDFNYPDQYVREYAVGCLRQMSDEELSQYLLQLVQVLKYEPFLDCALSRFLLERALGNRRIGQFLFWHLRSEVHIPAVSVQFGVILEAYCRGSVGHMKVLSKQVEALNKLKTLNSLIKLNAVKLNRAKGKEAMHTCLKQSAYREALSDLQSPLNPCVILSELYVEKCKYMDSKMKPLWLVYNNKVFGEDSVGVIFKNGDDLRQDMLTLQMLRLMDLLWKEAGLDLRMLPYGCLATGDRSGLIEVVSTSETIADIQLNSSNVAAAAAFNKDALLNWLKEYNSGDDLDRAIEEFTLSCAGYCVASYVLGIGDRHSDNIMVKKTGQLFHIDFGHILGNFKSKFGIKRERVPFILTYDFIHVIQQGKTGNTEKFGRFRQCCEDAYLILRRHGNLFITLFALMLTAGLPELTSVKDIQYLKDSLALGKSEEEALKQFKQKFDEALRESWTTKVNWMAHTVRKDYRS [PIK3CB]”: the thermal stability score was 0.304 in the data set with HeLa Kyoto [1] (setting [3]) and 0.592 with HeLa Kyoto [1] (cell cycle stage: mitosis).

Turning to “MEINTKLLISVTCISFFTFQLLFYFVSYWFSAKVSPGFNSLSFKKKIEWNSRVVSTCHSLVVGIFGLYIFLFDEATKADPLWGGPSLANVNIAIASGYLISDLSIIILYWKVIGDKFFIMHHCASLYAYYLVLKNGVLAYIGNFRLLAELSSPFVNQRWFFEALKYPKFSKAIVINGILMTVVFFIVRIASMLPHYGFMYSVYGTEPYIRLGVLIQLSWVISCVVLDVMNVMWMIKISKGCIKVISHIRQEKAKNSLQNGKLD [TMEM56]”, the thermal stability score in the data set on HeLa Kyoto [1] (setting [3]) was 0.000211; with HeLa Kyoto [1] (cell cycle stage: mitosis) it was -0.867.

Regarding “MFPREKTWNISFAGCGFLGVYYVGVASCLREHAPFLVANATHIYGASAGALTATALVTGVCLGEAGAKFIEVSKEARKRFLGPLHPSFNLVKIIRSFLLKVLPADSHEHASGRLGISLTRVSDGENVIISHFNSKDELIQANVCSGFIPVYCGLIPPSLQGVRYVDGGISDNLPLYELKNTITVSPFSGESDICPQDSSTNIHELRVTNTSIQFNLRNLYRLSKALFPPEPLVLREMCKQGYRDGLRFLQRNGLLNRPNPLLALPPARPHGPEDKDQAVESAQAEDYSQLPGEDHILEHLPARLNEALLEACVEPTDLLTTLSNMLPVRLATAMMVPYTLPLESALSFTIRLLEWLPDVPEDIRWMKEQTGSICQYLVMRAKRKLGRHLPSRLPEQVELRRVQSLPSVPLSCAAYREALPGWMRNNLSLGDALAKWEECQRQLLLGLFCTNVAFPPEALRMRAPADPAPAPADPASPQHQLAGPAPLLSTPAPEARPVIGALGL [PNPLA2]”, the thermal stability score was -0.911 with HeLa Kyoto [1] (setting [3]) and 1.32 with HeLa Kyoto [1] (cell cycle stage: mitosis).

On to “MLLSIGMLMLSATQVYTILTVQLFAFLNLLPVEADILAYNFENASQTFDDLPARFGYRLPAEGLKGFLINSKPENACEPIVPPPVKDNSSGTFIVLIRRLDCNFDIKVLNAQRAGYKAAIVHNVDSDDLISMGSNDIEVLKKIDIPSVFIGESSANSLKDEFTYEKGGHLILVPEFSLPLEYYLIPFLIIVGICLILIVIFMITKFVQDRHRARRNRLRKDQLKKLPVHKFKKGDEYDVCAICLDEYEDGDKLRILPCSHAYHCKCVDPWLTKTKKTCPVCKQKVVPSQGDSDSDTDSSQEENEVTEHTPLLRPLASVSAQSFGALSESRSHQNMTESSDYEEDDNEDTDSSDAENEINEHDVVVQLQPNGERDYNIANTV [RNF13]”, for which the melting temperature is 57.4 °C in the data set with HeLa Kyoto [2] (cell cycle stage: G1/S) and 64.3 °C with HeLa Kyoto [2] (cell cycle stage: mitosis).

Consider “MRSGEELDGFEGEASSTSMISGASSPYQPTTEPVSQRRGLAGLRCDPDYLRGALGRLKVAQVILALIAFICIETIMACSPCEGLYFFEFVSCSAFVVTGVLLIMFSLNLHMRIPQINWNLTDLVNTGLSAFLFFIASIVLAALNHRAGAEIAAVIFGFLATAAYAVNTFLAVQKWRVSVRQQSTNDYIRARTESRDVDSRPEIQRLDTFSYSTNVTVRKKSPTNLLSLNHWQLA [CMTM4]”, for which the melting temperature in the data set with HeLa Kyoto [2] (cell cycle stage: G1/S) turned out to be 58.1 °C.

As to “MSLCSPTHSAEMSLFLQGPEEMLPLSSEGSEMGSEKEQSPEPHLPEEGEGGKPWRVDDSEGSWIPPGEKEHGQESLSDELQETHPKKPWQKVTVRARELGDPIAHPRHEADEKPFICAQCGKTFNNTSNLRTHQRIHTGEKPYKCSECGKSFSRSSNRIRHERIHLEEKHYKCPKCQESFRRRSDLTTHQQDHLGKRPYRCDICGKSFSQSATLAVHHRTHLEPAPYICCECGKSFSNSSSFGVHHRTHTGERPYECTECGRTFSDISNFGAHQRTHRGEKPYRCTVCGKHFSRSSNLIRHQKTHLGEQAGKDSS [ZNF691]”, the melting temperature was found to be 54.9 °C in the data set with HeLa Kyoto [2] (cell cycle stage: G1/S) and 53.1 °C in the data set on HeLa Kyoto [2] (cell cycle stage: mitosis).

With “MSLPPEKASELKQLIHQQLSKMDVHGRIREILAETIREELAPDQQHLSTEDLIKALRRRGIIDDVMKELNFVTDSVEQELPSSPKQPICFDRQSTLKKTNIDPTRRYLYLQVLGGKAFLEHLQEPEPLPGQVCSTFTLCLHYRNQRFRSKPVPCACEPDFHDGFLLEVHRESLGDGTRMADSTTMLSISDPIHMVLIKTDIFGETTLVASYFLEWRSVLGSENGVTSLTVELMGVGTESKVSVGILNIKLEMYPPLNQTLSQEVVNTQLALERQKTAEKERLFLVYAKQWWREYLQIRPSHNSRLVKIFAQDENGINRPVCSYVKPLRAGRLLDTPRQAARFVNVLGYERAPVIGGGGKQEQWCTLLAFLCRNKGDCEDHANLLCSLLLGYGLEAFVCVGTKAKGVPHAWVMTCGTDGAITFWESLTGHRYIHKPTNPDEPPVAEQPKPLYPYRTIGCVFNHQMFLGNCQPSDAVETCVFDLNDESKWKPMSEEAIKSVCAPGATTSLPPFPPLCASTIDASVTSNEIEMQLRLLVSEHRKDLGLTTVWEDQLSYLLSPALASYEFERTTSISAGNEEFQDAIRRAVPDGHTFKGFPIHFVYRNARRAFATCLRSPFCEEIICCRGDQVRLAVRVRVFTYPESACAVWIMFACKYRSVL [CEP76]”, the melting temperature in the data set on HeLa Kyoto [2] (cell cycle stage: G1/S) came out at 53.7 °C.

As to “MSLRCGDAARTLGPRVFGRYFCSPVRPLSSLPDKKKELLQNGPDLQDFVSGDLADRSTWDEYKGNLKRQKGERLRLPPWLKTEIPMGKNYNKLKNTLRNLNLHTVCEEARCPNIGECWGGGEYATATATIMLMGDTCTRGCRFCSVKTARNPPPLDASEPYNTAKAIAEWGLDYVVLTSVDRDDMPDGGAEHIAKTVSYLKERNPKILVECLTPDFRGDLKAIEKVALSGLDVYAHNVETVPELQSKVRDPRANFDQSLRVLKHAKKVQPDVISKTSIMLGLGENDEQVYATMKALREADVDCLTLGQYMQPTRRHLKVEEYITPEKFKYWEKVGNELGFHYTASGPLVRSSYKAGEFFLKNLVAKRKTKDL [LIAS]”, the melting temperature in the data set with HeLa Kyoto [2] (cell cycle stage: G1/S) was determined as 52.1 °C; in the data set with HeLa Kyoto [2] (cell cycle stage: mitosis) it was 53.4 °C.

Regarding “MSSHKGSVVAQGNGAPASNREADTVELAELGPLLEEKGKRVIANPPKAEEEQTCPVPQEEEEEVRVLTLPLQAHHAMEKMEEFVYKVWEGRWRVIPYDVLPDWLKDNDYLLHGHRPPMPSFRACFKSIFRIHTETGNIWTHLLGFVLFLFLGILTMLRPNMYFMAPLQEKVVFGMFFLGAVLCLSFSWLFHTVYCHSEKVSRTFSKLDYSGIALLIMGSFVPWLYYSFYCSPQPRLIYLSIVCVLGISAIIVAQWDRFATPKHRQTRAGVFLGLGLSGVVPTMHFTIAEGFVKATTVGQMGWFFLMAVMYITGAGLYAARIPERFFPGKFDIWFQSHQIFHVLVVAAAFVHFYGVSNLQEFRYGLEGGCTDDTLL [ADIPOR1]”, the melting temperature in the data set with HeLa Kyoto [2] (cell cycle stage: G1/S) amounted to 55.6 °C.

As to “MWTLGRRAVAGLLASPSPAQAQTLTRVPRPAELAPLCGRRGLRTDIDATCTPRRASSNQRGLNQIWNVKKQSVYLMNLRKSGTLGHPGSLDETTYERLAEETLDSLAEFFEDLADKPYTFEDYDVSFGSGVLTVKLGGDLGTYVINKQTPNKQIWLSSPSSGPKRYDWTGKNWVYSHDGVSLHELLAAELTKALKTKLDLSSLAYSGKDA [FXN]”, the melting temperature was 53 °C with HeLa Kyoto [2] (cell cycle stage: G1/S) and 53.3 °C in the data set on HeLa Kyoto [2] (cell cycle stage: mitosis).

In the case of RAPGEF6, the melting temperature in the data set on HeLa Kyoto [2] (cell cycle stage: G1/S) came out at 47.3 °C; in the data set with HeLa Kyoto [2] (cell cycle stage: mitosis) it was 48.9 °C.
